Data: article doi:10.1101/2024.02.23.581811 (bioRxiv, 2024)
Where a chain is given by its changes, count along the chain named.

B1: NB80-eGFP-HRas (VHH)
VHH: QVQLQESGGGLVQAGGSLRLSCAASGSIFSINTMGWYRQAPGKQRELVAAIHSGGSTNYANSVKGRFTISRDNAANTVYLQMNSLKPEDTAVYYCNVKDYGAVLYEYDYWGQGTQVTVSS
B2: NB80Lite-eGFP-HRas (VHH)
VHH: B1 VHH with H52S, S56G, T57S, N58A

Biological target: β2-adrenergic receptor (Homo sapiens (Human)., UniProt P07550)
Assay: linear dichroism

Binder | binding result
B1 | binds
B2 | binds
